# Measured values from patent US8716221B2, “Modified exendins and uses thereof” (priority 2005, dated 2014).
# Where two headings read alike, the source gives them in different places. Where no end group is shown, it is not given here. [ ]: non-standard residue; d: D form. code ∗ = not defined here
# Key:
# [1] = Test for the stability of the polypeptide (LC-MS purity, pH 8.0, 40° C.); format: physicochemical; conditions: for Purity (%) 0 day: 4 mg/ml
# Description: The following method was used to determine the chemical stability of some polypeptides in the present invention.
# (§1) 1 mg of each sample was dissolved in a buffer solution, which contains 150 mM sodium chloride and 20 mM phosphate, from which a solution of concentration of 4 mg/ml was prepared and its pH is 8.0. The testing sample solutions were placed in a thermostat of 40° C. LC-MS was used to determine the purity of polypeptide. Correlation between the reduction ratio of the main peak area and time reflects the chemical stability of the polypeptide. Expressed as a percentage, purity is the percentage corresponding to the target peak in the total of all peaks including impurities. Using LC, the main peak was separated from any impurities, and the relative percentages of main peak and impurities at times 0 (before incubation at 40° C. at pH 4.5-8) and after 5, 10 and 15 days were determined. MS was used to identify the main peak as the target molecule. The main peak area plus the peak areas of any impurities gives a total equal to 100%, with relative purity calculated at a certain time (5, 10 or 15 days) against the purity at time 0 compared to the purity before incubation at 40° C. at pH 4.5-8.
# [2] = format: physicochemical; conditions: for 0 day Purity (%) / 5 days Purity (%) / 5 days Relative Purity (%) / 10 days Purity (%) / 10 days Relative Purity (%) / 15 days Purity (%) / 15 days Relative Purity (%): pH 4.5, 40° C.; for 5 days Relative Purity (%) / 10 days Relative Purity (%) / 15 days Relative Purity (%): compared with the corresponding sample at 0 day
# Description: as §1
# (§2) The following method was used to determine the chemical stability of various modified exendins having a sequence identity of at least 90% to SEQ ID no. 17 under acidic/basic conditions. […] Purity was determined by LC-MS as percentage of the target peak in the total of all peaks including impurities as described in example 3.
# 4 mg Exendin-4 derivative polypeptide (described in Table 2 below) was dissolved in 20 mM sodium buffer (pH 4.5) so as to prepare a solution at concentration of 4 mg/ml. The testing sample solutions were placed in a thermostat setting at 40° C. LC-MS was used to determine the purity of polypeptide. The chemical stability of the polypeptide was expressed as the correlation between the reduction ratio of the main peak area and time and determined as described above.
# [3] = Stability of Exendin-4 derivatives under basic conditions (PBS pH 7.4, 40° C., LC-MS purity); format: physicochemical; conditions: for 5 days Relative Purity (%) / 10 days Relative Purity (%): compared with the corresponding sample at 0 day
# Description: as §1, §2
# 4 mg Exendin-4 derivative polypeptide (described in Table 3 above) was taken and dissolved in PBS buffer (KH2PO4 0.27 g/L, Na2HPO4 1.42 g/L, NaCl 8 g/L and KCl 0.2 g/L, pH 7.4) so as to prepare a solution at concentration of 4 mg/ml. The testing sample solutions were placed in a thermostat setting at 40° C. LC-MS was used to determine the purity of polypeptide. The chemical stability of the polypeptide was expressed as the correlation between the reduction ratio of the main peak area and time.
# normal mice = test: Oral glucose tolerance test in normal mice after subcutaneous injection; format: in vivo; conditions: unit not given
# From the text: Polypeptide of SEQ ID NO: 25 was modified with polyethylene glycol of molecular weight of about 40,000 (sample 4 as described in Examples 3 and 4 above).
# [4] = first day after s.c. injection, dosage (20)
# [5] = first day after s.c. injection, dosage (80)
# [6] = third day after s.c. injection, dosage (20)
# [7] = third day after s.c. injection, dosage (80)
substance,measurement,setting,value
HdAEGTFTSDL SKQMEEEAVR LFIEWLKNGG PSSGAPPPC-NH2 [Sample 2-1],stability of the polypeptide (conclusion in words),[1],not very stable
same,Purity (%) 0 day,[1],98%
same,Purity (%) 5th day,[1],93.1%
same,Purity (%) 10th day,[1],90.4%
same,Purity (%) 15th day,[1],88.2%
same,0 day Purity (%),[2],98.0%
same,5 days Purity (%),[2],93.8%
same,5 days Relative Purity (%),[2],95.71%
same,10 days Purity (%),[2],89.6%
same,10 days Relative Purity (%),[2],91.43%
same,15 days Purity (%),[2],86.7%
same,15 days Relative Purity (%),[2],88.47%
same,main impurity,"[2]; stability test, cysteine at C-terminal end",dimers formed by oxidization of the mercapto-groups
HdAEGTFTSDL SKQNleEEEAVR LFIEWLKQGG PSSGAPPPS-NH2 [Sample 3],Purity (%) 0 day,[1],98.9%
same,Purity (%) 5th day,[1],98.8%
same,Purity (%) 10th day,[1],98.8%
same,Purity (%) 15th day,[1],98.8%
same,0 day Purity (%),[3],98.9%
same,5 days Purity (%),[3],98.6%
same,5 days Relative Purity (%),[3],99.70%
same,10 days Purity (%),[3],98.5%
same,10 days Relative Purity (%),[3],99.60%
same,0 day Purity (%),[2],98.9%
same,5 days Purity (%),[2],98.7%
same,5 days Relative Purity (%),[2],99.80%
same,10 days Purity (%),[2],98.7%
same,10 days Relative Purity (%),[2],99.80%
same,15 days Purity (%),[2],98.6%
same,15 days Relative Purity (%),[2],99.70%
HGEGTFTSDLSKQMEEEAVRLFIEWLKQGGPSSGAPPPK* [Sample 5],0 day Purity (%),[3],98.3%
same,5 days Purity (%),[3],95.7%
same,5 days Relative Purity (%),[3],97.36%
same,10 days Purity (%),[3],94.2%
same,10 days Relative Purity (%),[3],95.83%
same,0 day Purity (%),[2],98.3%
same,5 days Purity (%),[2],96.3%
same,5 days Relative Purity (%),[2],97.97%
same,10 days Purity (%),[2],95.1%
same,10 days Relative Purity (%),[2],96.74%
same,15 days Purity (%),[2],94.1%
same,15 days Relative Purity (%),[2],95.73%
HdAEGTFTSDL SKQMEEEAVR LFIEWLKNGG PSSGAPPPC-PEG40K [Sample 4],stability of the polypeptide (conclusion in words),[1],very stable
same,Purity (%) 0 day,[1],99.7%
same,Purity (%) 5th day,[1],99.4%
same,Purity (%) 10th day,[1],99.0%
same,Purity (%) 15th day,[1],99.3%
same,0 day Purity (%),[3],99.7%
same,5 days Purity (%),[3],99.0%
same,5 days Relative Purity (%),[3],99.30%
same,10 days Purity (%),[3],98.2%
same,10 days Relative Purity (%),[3],98.50%
same,AUC (area under the curve of the blood glucose level),normal mice; [4],176.4 ± 22.0 mg·h/dL
same,Blood Glucose level 0 min,normal mice; [4],116.6 ± 10.8 mg/dL
same,Blood Glucose level 30 min,normal mice; [4],95.7 ± 9.9 mg/dL
same,Blood Glucose level 60 min,normal mice; [4],88.9 ± 28.6 mg/dL
same,Blood Glucose level 120 min,normal mice; [4],65.4 ± 5.1 mg/dL
same,AUC (area under the curve of the blood glucose level),normal mice; [5],166.6 ± 16.7 mg·h/dL
same,Blood Glucose level 0 min,normal mice; [5],122.2 ± 9.1 mg/dL
same,Blood Glucose level 30 min,normal mice; [5],92.1 ± 12.4 mg/dL
same,Blood Glucose level 60 min,normal mice; [5],76.7 ± 8.7 mg/dL
same,Blood Glucose level 120 min,normal mice; [5],64.9 ± 7.5 mg/dL
same,AUC (area under the curve of the blood glucose level),normal mice; [6],253.6 ± 24.4 mg·h/dL
same,Blood Glucose level 0 min,normal mice; [6],96.2 ± 8.6 mg/dL
same,Blood Glucose level 30 min,normal mice; [6],172.8 ± 33.2 mg/dL
same,Blood Glucose level 60 min,normal mice; [6],132.1 ± 12.4 mg/dL
same,Blood Glucose level 120 min,normal mice; [6],88.3 ± 7.8 mg/dL
same,AUC (area under the curve of the blood glucose level),normal mice; [7],217.0 ± 21.9 mg·h/dL
same,Blood Glucose level 0 min,normal mice; [7],89.5 ± 9.3 mg/dL
same,Blood Glucose level 30 min,normal mice; [7],149.3 ± 32.4 mg/dL
same,Blood Glucose level 60 min,normal mice; [7],108.6 ± 8.8 mg/dL
same,Blood Glucose level 120 min,normal mice; [7],77.1 ± 8.4 mg/dL
same,stability compared with samples 2-1 and 9-1,[2],even higher stability
same,0 day Purity (%),[2],99.7%
same,5 days Purity (%),[2],99.4%
same,5 days Relative Purity (%),[2],99.70%
same,10 days Purity (%),[2],99.3%
same,10 days Relative Purity (%),[2],99.60%
same,15 days Purity (%),[2],99.0%
same,15 days Relative Purity (%),[2],99.30%
HdAEGTFTTSDL SKQNleEEEAVR LFIEWLKQGG PSSGAPPPC-PEG40K [Sample 13],0 day Purity (%),[3],99.8%
same,5 days Purity (%),[3],99.3%
same,5 days Relative Purity (%),[3],99.50%
same,10 days Purity (%),[3],98.9%
same,10 days Relative Purity (%),[3],99.10%
same,stability compared with samples 2-1 and 9-1,[2],even higher stability
same,0 day Purity (%),[2],99.8%
same,5 days Purity (%),[2],99.6%
same,5 days Relative Purity (%),[2],99.80%
same,10 days Purity (%),[2],99.7%
same,10 days Relative Purity (%),[2],99.90%
same,15 days Purity (%),[2],99.5%
same,15 days Relative Purity (%),[2],99.70%
HdAEGTFTSDL SKQMEEEAVR LFIEWLVKGG PSSGAPPPK* (H[dA]EGTFTSDLSKQMEEEAVRLFIEWLVKGGPSSGAPPPK(code ∗); reading uncertain; also: C-terminal modification (*)) [Sample 11],0 day Purity (%),[3],98.3%
same,5 days Purity (%),[3],97.1%
same,5 days Relative Purity (%),[3],98.78%
same,10 days Purity (%),[3],96.4%
same,10 days Relative Purity (%),[3],98.07%
same,0 day Purity (%),[2],98.3%
same,5 days Purity (%),[2],96.7%
same,5 days Relative Purity (%),[2],98.37%
same,10 days Purity (%),[2],95.9%
same,10 days Relative Purity (%),[2],97.56%
same,15 days Purity (%),[2],94.8%
same,15 days Relative Purity (%),[2],96.44%
HdAEGTFTTSDL SKQNleEEEAVR LFIEWLKQGG PSSGAPPPC(AM) [Sample 9-2],0 day Purity (%),[3],99.0%
same,5 days Purity (%),[3],98.8%
same,5 days Relative Purity (%),[3],99.80%
same,10 days Purity (%),[3],98.7%
same,10 days Relative Purity (%),[3],99.70%
same,0 day Purity (%),[2],99.0%
same,5 days Purity (%),[2],98.9%
same,5 days Relative Purity (%),[2],99.90%
same,10 days Purity (%),[2],98.8%
same,10 days Relative Purity (%),[2],99.80%
same,15 days Purity (%),[2],98.8%
same,15 days Relative Purity (%),[2],99.80%
